Biological target: T1, FcγRIa extracellular domain with C-terminal His tag (human, UniProt P12314 16-292)
T1 construct: extracellular domain; also called FcgRI; CD64; not shown: His tag at the C terminus
Experiment: SPR Biacore, relative FcγRIa binding vs GpH7-B3/GpL16-k0

T1 sequence (P12314 16-292): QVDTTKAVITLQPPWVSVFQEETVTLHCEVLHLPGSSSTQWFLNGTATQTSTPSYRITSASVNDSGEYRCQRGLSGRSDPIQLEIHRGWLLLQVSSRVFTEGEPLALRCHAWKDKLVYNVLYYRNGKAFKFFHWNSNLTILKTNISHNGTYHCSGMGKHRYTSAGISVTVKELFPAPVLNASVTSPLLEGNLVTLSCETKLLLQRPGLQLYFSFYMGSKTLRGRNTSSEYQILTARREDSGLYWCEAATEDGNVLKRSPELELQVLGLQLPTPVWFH

Row | Ho/Con_1a | Binder
1 | 96.5 % of HoCon Ab (=100) | GpH7-B3 variant Y300_12R/GpL16-k0 (antibody, human IgG1, kappa, mutation in both H chains; also called Ho Ab Y300_12R; Y300R) heavy: not shown light: DIVMTQSPLSLPVTPGEPASISCQASESLVHSNRNTYLHWYLQKPGQSPQLLIYKVSNRFSGVPDRFSGSGSGTDFTLKISRVEAEDVGVYYCSQNTHVPPTFGQGTKVEIERTVAAPSVFIFPPSDEQLKSGTASVVCLLNNFYPREAKVQWKVDNALQSGNSQESVTEQDSKDSTYSLSSTLTLSKADYEKHKVYACEVTHQGLSSPVTKSFNRGEC

Biological target: T1, FcγRIa extracellular domain with …
Experiment: SPR Biacore, relative FcγRIa binding vs GpH7-A5/GpH7-B3/GpL16-k0

Row | Binder | He/Con_1a
2 | GpH7-A5/GpH7-B3 variant S298_11K/GpL16-k0 (antibody, human IgG1, kappa, mutation in one H chain only; also called He Ab S298_11K; S298K) heavy 1: not shown heavy 2: not shown light: DIVMTQSPLSLPVTPGEPASISCQASESLVHSNRNTYLHWYLQKPGQSPQLLIYKVSNRFSGVPDRFSGSGSGTDFTLKISRVEAEDVGVYYCSQNTHVPPTFGQGTKVEIERTVAAPSVFIFPPSDEQLKSGTASVVCLLNNFYPREAKVQWKVDNALQSGNSQESVTEQDSKDSTYSLSSTLTLSKADYEKHKVYACEVTHQGLSSPVTKSFNRGEC | 109 % of HeCon Ab (=100)
3 | GpH7-A5/GpH7-B3 variant S239_14T/GpL16-k0 (antibody, human IgG1, kappa, mutation in one H chain only; also called He Ab S239_14T; S239T) heavy 1: not shown heavy 2: not shown light: DIVMTQSPLSLPVTPGEPASISCQASESLVHSNRNTYLHWYLQKPGQSPQLLIYKVSNRFSGVPDRFSGSGSGTDFTLKISRVEAEDVGVYYCSQNTHVPPTFGQGTKVEIERTVAAPSVFIFPPSDEQLKSGTASVVCLLNNFYPREAKVQWKVDNALQSGNSQESVTEQDSKDSTYSLSSTLTLSKADYEKHKVYACEVTHQGLSSPVTKSFNRGEC | 101 % of HeCon Ab (=100)
4 | GpH7-A5/GpH7-B3 variant S239_18N/GpL16-k0 (antibody, human IgG1, kappa, mutation in one H chain only; also called He Ab S239_18N; S239N) heavy 1: not shown heavy 2: not shown light: DIVMTQSPLSLPVTPGEPASISCQASESLVHSNRNTYLHWYLQKPGQSPQLLIYKVSNRFSGVPDRFSGSGSGTDFTLKISRVEAEDVGVYYCSQNTHVPPTFGQGTKVEIERTVAAPSVFIFPPSDEQLKSGTASVVCLLNNFYPREAKVQWKVDNALQSGNSQESVTEQDSKDSTYSLSSTLTLSKADYEKHKVYACEVTHQGLSSPVTKSFNRGEC | 101 % of HeCon Ab (=100)
5 | GpH7-A5/GpH7-B3 variant S239_09D/GpL16-k0 (antibody, human IgG1, kappa, mutation in one H chain only; also called He Ab S239_09D; S239D) heavy 1: not shown heavy 2: not shown light: DIVMTQSPLSLPVTPGEPASISCQASESLVHSNRNTYLHWYLQKPGQSPQLLIYKVSNRFSGVPDRFSGSGSGTDFTLKISRVEAEDVGVYYCSQNTHVPPTFGQGTKVEIERTVAAPSVFIFPPSDEQLKSGTASVVCLLNNFYPREAKVQWKVDNALQSGNSQESVTEQDSKDSTYSLSSTLTLSKADYEKHKVYACEVTHQGLSSPVTKSFNRGEC | 101 % of HeCon Ab (=100)
6 | GpH7-A5/GpH7-B3 variant S239_19Q/GpL16-k0 (antibody, human IgG1, kappa, mutation in one H chain only; also called He Ab S239_19Q; S239Q) heavy 1: not shown heavy 2: not shown light: DIVMTQSPLSLPVTPGEPASISCQASESLVHSNRNTYLHWYLQKPGQSPQLLIYKVSNRFSGVPDRFSGSGSGTDFTLKISRVEAEDVGVYYCSQNTHVPPTFGQGTKVEIERTVAAPSVFIFPPSDEQLKSGTASVVCLLNNFYPREAKVQWKVDNALQSGNSQESVTEQDSKDSTYSLSSTLTLSKADYEKHKVYACEVTHQGLSSPVTKSFNRGEC | 101 % of HeCon Ab (=100)
7 | GpH7-A5/GpH7-B3 variant S267_01G/GpL16-k0 (antibody, human IgG1, kappa, mutation in one H chain only; also called He Ab S267_01G; S267G) heavy 1: not shown heavy 2: not shown light: DIVMTQSPLSLPVTPGEPASISCQASESLVHSNRNTYLHWYLQKPGQSPQLLIYKVSNRFSGVPDRFSGSGSGTDFTLKISRVEAEDVGVYYCSQNTHVPPTFGQGTKVEIERTVAAPSVFIFPPSDEQLKSGTASVVCLLNNFYPREAKVQWKVDNALQSGNSQESVTEQDSKDSTYSLSSTLTLSKADYEKHKVYACEVTHQGLSSPVTKSFNRGEC | 103 % of HeCon Ab (=100)
8 | GpH7-A5/GpH7-B3 variant S267_02A/GpL16-k0 (antibody, human IgG1, kappa, mutation in one H chain only; also called He Ab S267_02A; S267A) heavy 1: not shown heavy 2: not shown light: DIVMTQSPLSLPVTPGEPASISCQASESLVHSNRNTYLHWYLQKPGQSPQLLIYKVSNRFSGVPDRFSGSGSGTDFTLKISRVEAEDVGVYYCSQNTHVPPTFGQGTKVEIERTVAAPSVFIFPPSDEQLKSGTASVVCLLNNFYPREAKVQWKVDNALQSGNSQESVTEQDSKDSTYSLSSTLTLSKADYEKHKVYACEVTHQGLSSPVTKSFNRGEC | 109 % of HeCon Ab (=100)

Second part, the binder after the results:

Row | He/Con_1a | Binder
9 | 101 % of HeCon Ab (=100) | GpH7-A5/GpH7-B3 variant S267_08L/GpL16-k0 (antibody, human IgG1, kappa, mutation in one H chain only; also called He Ab S267_08L; S267L) heavy 1: not shown heavy 2: not shown light: DIVMTQSPLSLPVTPGEPASISCQASESLVHSNRNTYLHWYLQKPGQSPQLLIYKVSNRFSGVPDRFSGSGSGTDFTLKISRVEAEDVGVYYCSQNTHVPPTFGQGTKVEIERTVAAPSVFIFPPSDEQLKSGTASVVCLLNNFYPREAKVQWKVDNALQSGNSQESVTEQDSKDSTYSLSSTLTLSKADYEKHKVYACEVTHQGLSSPVTKSFNRGEC
10 | 110 % of HeCon Ab (=100) | GpH7-A5/GpH7-B3 variant S298_03V/GpL16-k0 (antibody, human IgG1, kappa, mutation in one H chain only; also called He Ab S298_03V; S298V) heavy 1: not shown heavy 2: not shown light: DIVMTQSPLSLPVTPGEPASISCQASESLVHSNRNTYLHWYLQKPGQSPQLLIYKVSNRFSGVPDRFSGSGSGTDFTLKISRVEAEDVGVYYCSQNTHVPPTFGQGTKVEIERTVAAPSVFIFPPSDEQLKSGTASVVCLLNNFYPREAKVQWKVDNALQSGNSQESVTEQDSKDSTYSLSSTLTLSKADYEKHKVYACEVTHQGLSSPVTKSFNRGEC
11 | 110 % of HeCon Ab (=100) | GpH7-A5/GpH7-B3 variant S267_09D/GpL16-k0 (antibody, human IgG1, kappa, mutation in one H chain only; also called He Ab S267_09D; S267D) heavy 1: not shown heavy 2: not shown light: DIVMTQSPLSLPVTPGEPASISCQASESLVHSNRNTYLHWYLQKPGQSPQLLIYKVSNRFSGVPDRFSGSGSGTDFTLKISRVEAEDVGVYYCSQNTHVPPTFGQGTKVEIERTVAAPSVFIFPPSDEQLKSGTASVVCLLNNFYPREAKVQWKVDNALQSGNSQESVTEQDSKDSTYSLSSTLTLSKADYEKHKVYACEVTHQGLSSPVTKSFNRGEC
12 | 106 % of HeCon Ab (=100) | GpH7-A5/GpH7-B3 variant S267_03V/GpL16-k0 (antibody, human IgG1, kappa, mutation in one H chain only; also called He Ab S267_03V; S267V) heavy 1: not shown heavy 2: not shown light: DIVMTQSPLSLPVTPGEPASISCQASESLVHSNRNTYLHWYLQKPGQSPQLLIYKVSNRFSGVPDRFSGSGSGTDFTLKISRVEAEDVGVYYCSQNTHVPPTFGQGTKVEIERTVAAPSVFIFPPSDEQLKSGTASVVCLLNNFYPREAKVQWKVDNALQSGNSQESVTEQDSKDSTYSLSSTLTLSKADYEKHKVYACEVTHQGLSSPVTKSFNRGEC
13 | 104 % of HeCon Ab (=100) | GpH7-A5/GpH7-B3 variant S298_01G/GpL16-k0 (antibody, human IgG1, kappa, mutation in one H chain only; also called He Ab S298_01G; S298G) heavy 1: not shown heavy 2: not shown light: DIVMTQSPLSLPVTPGEPASISCQASESLVHSNRNTYLHWYLQKPGQSPQLLIYKVSNRFSGVPDRFSGSGSGTDFTLKISRVEAEDVGVYYCSQNTHVPPTFGQGTKVEIERTVAAPSVFIFPPSDEQLKSGTASVVCLLNNFYPREAKVQWKVDNALQSGNSQESVTEQDSKDSTYSLSSTLTLSKADYEKHKVYACEVTHQGLSSPVTKSFNRGEC
14 | 107 % of HeCon Ab (=100) | GpH7-A5/GpH7-B3 variant S298_02A/GpL16-k0 (antibody, human IgG1, kappa, mutation in one H chain only; also called He Ab S298_02A; S298A) heavy 1: not shown heavy 2: not shown light: DIVMTQSPLSLPVTPGEPASISCQASESLVHSNRNTYLHWYLQKPGQSPQLLIYKVSNRFSGVPDRFSGSGSGTDFTLKISRVEAEDVGVYYCSQNTHVPPTFGQGTKVEIERTVAAPSVFIFPPSDEQLKSGTASVVCLLNNFYPREAKVQWKVDNALQSGNSQESVTEQDSKDSTYSLSSTLTLSKADYEKHKVYACEVTHQGLSSPVTKSFNRGEC
15 | 100 % of HeCon Ab (=100) | GpH7-A5/GpH7-B3 variant S267_16H/GpL16-k0 (antibody, human IgG1, kappa, mutation in one H chain only; also called He Ab S267_16H; S267H) heavy 1: not shown heavy 2: not shown light: DIVMTQSPLSLPVTPGEPASISCQASESLVHSNRNTYLHWYLQKPGQSPQLLIYKVSNRFSGVPDRFSGSGSGTDFTLKISRVEAEDVGVYYCSQNTHVPPTFGQGTKVEIERTVAAPSVFIFPPSDEQLKSGTASVVCLLNNFYPREAKVQWKVDNALQSGNSQESVTEQDSKDSTYSLSSTLTLSKADYEKHKVYACEVTHQGLSSPVTKSFNRGEC
16 | 109 % of HeCon Ab (=100) | GpH7-A5/GpH7-B3 variant S298_04F/GpL16-k0 (antibody, human IgG1, kappa, mutation in one H chain only; also called He Ab S298_04F; S298F) heavy 1: not shown heavy 2: not shown light: DIVMTQSPLSLPVTPGEPASISCQASESLVHSNRNTYLHWYLQKPGQSPQLLIYKVSNRFSGVPDRFSGSGSGTDFTLKISRVEAEDVGVYYCSQNTHVPPTFGQGTKVEIERTVAAPSVFIFPPSDEQLKSGTASVVCLLNNFYPREAKVQWKVDNALQSGNSQESVTEQDSKDSTYSLSSTLTLSKADYEKHKVYACEVTHQGLSSPVTKSFNRGEC
